Assay: yeast display, Sf9 membrane polyspecificity reagent, FACS + sequencing; frameworks hold sequencing errors
How it was run: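 Genes from sorted yeast were amplified by colony PCR, read by MiSeq 2 × 250 sequencing and filtered on CDR length. These cells carried a synthetic nanobody library in Saccharomyces cerevisiae BJ5465 and were sorted by FACS into low and high (top ~1%) gates on anti-HA and streptavidin fluorescence. Polyreactivity is labelled according to the gate of origin.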

| Sequence | polyreactivity (PSR sort gate) |
| --- | --- |
| QVQLVESGGGLVQAGGSLRLSCAASGNTFYGYAMGWYRQAPGKERELVASITLSGDSTYYADSVKGRFTISRDNAMNTVYLQMNSLKPEYTAVYYCAGVYTYPLGYYHYTYDYWGQGTQVTVSS | low polyreactivity |
| QVQLVESGGGLVQAGGSLRLSCAASGNTFYKYAMGWYRQAPGKERELVADISWSGGSTYYADSVKGRFTISRDNAKNTVYLQMNSLKPEDTAVYYCNADTPVWDGHAYPVDYWGQGTQVTVSS | low polyreactivity |
| QVQLVESGGGLVQAGGSLRLSCAASGNTFYRNAMGWSRQAPGKERELVAAIDYSAGSTYYADSVKGRFTISRDNAKNTVYLQMNSLKPEDTAVYYCAADARTSRGRRYYYWGQGTQVTVSS | low polyreactivity |
| QVQLVESGGGLVQAGGSLRLSCAASGNTFYRYAMGWYRQAPGKERELVAAISWSGSSTYYADSVKGRFTISRDNAKNTVYLQMNSLKPEDTAVYYCAAGTYDGGYHYDYWGQGTQVTVSS | high polyreactivity |
| QVQLVESGGGLVQAGGSLRLSCAASGNTFYVNVMGWYRQAPGKEREFVAAISTRGVSTSYADSVKGRVTISRDNAKNTVYLQMNSLKPEDTAVYYCAASFRRPQPKGSTYGYWGQGTQVTVSS | high polyreactivity |
| QVQLVESGGGLVQAGGSLRLSCAASGNTFYVNVMGWYRQAPGKERELVARITTSGGSTSYADSVKGRFTISRDNAKNTVYLQMNSLKPEDTAVYYCAADFPEYYLPYDYWGQGTQVTVSS | low polyreactivity |
| QVQLVESGGGLVQAGGSLRLSCAASGNTFYWNAMGWYRQAPGKERELVAAISTTGVSTYYADSVKGRFTISRDNAKNTVYLQMNSLKPEDTAVYYCAAEIIGYHTIYDYWGQGTQVTVSS | low polyreactivity |
| QVQLVESGGGLVQAGGSLRLSCAASGNTFYYAKAWYRQAPGKERELVASIRTGGSTNYADSVKGRFTISRDNAKNTVYLQMNSLKPEDTAVYYCNRDGTYTHTGWDYWRPYEYWGQGTQVTVSS | low polyreactivity |
| QVQLVESGGGLVQAGGSLRLSCAASGNTFYYNAMGWYRQAPGKEREFVATITESGTSTYYADSVKGRFTISRDNAKNTVYLQMNSLKPEDTAVYYCAAQYWYVGGIAWYDYWGQGTQVTVSS | low polyreactivity |
| QVQLVESGGGLVQAGGSLRLSCAASGNTFYYYAMGWYRQAPGKERELVASITSTARTYYADSVKGRFTISRDNAKNTVYLQMNSLKPEDTAVYYCNAKEHYATRSDSWGEGTQVTVSS | high polyreactivity |
| QVQLVESGGGLVQAGGSLRLSCAASGNTIFPSTMGWYRQAPGKEREFVAAMTWSGVSTYYADSVKGRFTISRDNAKNTVYLQMNSLKPEDTAVYYCAARGPVYVSYPRQYGYWGQGTQVTVSS | high polyreactivity |
| QVQLVESGGGLVQAGGSLRLSCAASGNTIIRYAMGWYRQAPGKERELVAAISYSGGRTYYADSVKGRFTISRDNAKNTVYLQMNSLKPEDTAVYYCAARYYPSGYRKKMYYWGQGTQVTVSS | high polyreactivity |
| QVQLVESGGGLVQAGGSLRLSCAASGNTITFNTMAWYRQAPGKEREVVAVISRSGGSTYYADSVKGRFTISRDNAKNTVYLQMNSLKPEDTAVYYCAATGFSYRYFQTRDYWGQGTQVTVSS | high polyreactivity |
| QVQLVESGGGLVQAGGSLRLSCAASGNTITWNTMGWYRQAPGKERELVAVITSDGSTYYADSVKGRFTISRDNAKNSVYLQMNRLKPEDTSVYYCNALCAEWYPEEDYWGQGTQVTVSS | low polyreactivity |
| QVQLVESGGGLVQAGGSLRLSCAASGNTLDAYAMGWYRQAPGKERELVASITYRGGSTYYADSVKGRFTISRDNAKNTVYLQMNSLKPEDTAVYYCAAAYQKSPITPKMDYWGQGTQVTVSS | low polyreactivity |
| QVQLVESGGGLVQAGGSLRLSCAASGNTLDAYTLGWDRQAPGKERELVAAISRGGTRTYYADSLKGRFTISRDNAKNTVYLQMKSLKPEDTAVYSCAAKVGYTHEYGRYDYWGQGTQVTVSS | high polyreactivity |

| Sequence | polyreactivity (PSR sort gate) |
| --- | --- |
| QVQLVESGGGLVQAGGSLRLSCAASGNTLIQYAMGWYRQAPGKERELVAGISGSDDSTYYADSVKGRFTISRDNAKNTVYLQMNSLKPEDTAVYYCAAQVDRWKGREHDYWGQGTQVTVSS | low polyreactivity |
| QVQLVESGGGLVQAGGSLRLSCAASGNTLRPNGMGWYRQAPGKERELVAAISSGGSPYYADSVKGRFTISRDNAKNTVYLQMNSLKPEDTAVYYCAAEYWYDYWGQGTQVTVSS | low polyreactivity |
| QVQLVESGGGLVQAGGSLRLSCAASGNTYPVYAMGWYRHASGQERELDATITSGGSTNYADSVKGRFTLSRDNAKTSVYYQMNSLSPEDTAVYYCARRAVYSKRRYDYWGQGTQVTVSS | low polyreactivity |
| QVQLVESGGGLVQAGGSLRLSCAASGPIFFINAMGSYRQAPGKEREFLATISWSGGSTYYADSVKGRFTISRDNAKNTVYLQMNSLKPEDTAVYYCNAETYGSRWRRQYGYWGQGTQVTVSS | high polyreactivity |
| QVQLVESGGGLVQAGGSLRLSCAASGPIFRGYAMGWYRQAPGKERELVARITSGGRTYYADSVKGRFTISRDNAKNTVYLQMNSLKPEDTAVYYCATVGRGYDERHNYWGQGTQVTVSS | high polyreactivity |
| QVQLVESGGGLVQAGGSLRLSCAASGPTFRYYAMGWYRQAPGKERELVATITGSGGSTYYADSVKGRFTISRDNAKNTVYLQMNSLKPEDTAVYYCNARKVRYPYRWYDYWGQGTQVTVSS | high polyreactivity |
| QVQLVESGGGLVQAGGSLRLSCAASGPTFSKANAMGWYRQAPVKERELVAAITDGGSTYADSVKGRFTISRDNAKNTVYLQINSLKPEDTAVYYCAKDTEVFYDASYDYWGQGTQVTVSS | low polyreactivity |
| QVQLVESGGGLVQAGGSLRLSCAASGPTFYEYAMGWYRQAPGKERELVARITRGGSTYYADSVKGRFTISRDNAKNTVYLQMNSLKPEDTAVYYCAAPYKDLYPYYEYDYWGHGTQVTVSS | low polyreactivity |
| QVQLVESGGGLVQAGGSLRLSCAASGPTFYRYAMGRYRQAPGKERELVAAISASGGSTYYADSVKGRFTISRDNAKNTVYLQMNSLKPEDTAVYYCAARGWYSLYEFYYWGQGTQVTVSS | high polyreactivity |
| QVQLVESGGGLVQAGGSLRLSCAASGPTNAMGWYRQAPGKERELVAAITKSGGSTYYADSVKGRFTISRDNAKNTVYLQMNSLKPEDTAVYYCALILRHTAYYYWGQGTQVTVSS | high polyreactivity |
| QVQLVESGGGLVQAGGSLRLSCAASGRFFGRHAMGWYRQAPGKERELVAVISKRGSSTSYADSVKGRFTISRDNAKNTVYLQMNSLKPEDTAVYYCNVFRVAYYATSTYGYDYWGQGTQVTVSS | high polyreactivity |
| QVQLVESGGGLVQAGGSLRLSCAASGRFLWYNAMGWYRQAPGTERELVAAITRGGSTHYADSVKGRFTLSRDNAKNTVYLQMNSLKPEDTAVYYCAVSYRSFPYYWERYYSWGQGTQVTVSS | high polyreactivity |
| QVQLVESGGGLVQAGGSLRLSCAASGRICDSYTMGWYRQAPGKERELVAAISRGGGSTYYADSVKGRFTISRDNAQNTVYLQMNSLKPEDTAVYYCAASSYLNSRFKFDYWGQGTQVTVSS | low polyreactivity |
| QVQLVESGGGLVQAGGSLRLSCAASGRICINDMGWYRQAPGKERELVAAIRSDGSTNYADSVKGRFTISRDNAKNTVYLQMNSLKPEDTAVYYCNVDGYYLFVRGYEYWGQGTQVTVSS | low polyreactivity |
| QVQLVESGGGLVQAGGSLRLSCAASGRIFAAYAMGWYRQAPGKERELVASISRGGSTNYADSVKGRFTISRDNAKNTVYLQMNSLKPEDTAVYYCAARQGSTYYAYYYWGQGTQVTVSS | high polyreactivity |
| QVQLVESGGGLVQAGGSLRLSCAASGRIFAGYAMGWYRQAPGKERELVATISSGGSTYYADSVKGRFTISRDNAKNTVYLQMNSLKPEDTAVYYCAAEYGTRQYSSYYKLFNYWGQGTQVTVSS | low polyreactivity |
